This note sets out measurements from patent US20240010684A1 (Bayer, published 2024).

Bridges are numbered along the chain shown (N, C = ends).

Holding throughout (assay): cell-based or functional assay
Assay [1] addresses T1, recombinant human MASP1 (amino acids 297-699, C-terminal His Tag) (human, UniProt P48740 297-699).
T1 sequence: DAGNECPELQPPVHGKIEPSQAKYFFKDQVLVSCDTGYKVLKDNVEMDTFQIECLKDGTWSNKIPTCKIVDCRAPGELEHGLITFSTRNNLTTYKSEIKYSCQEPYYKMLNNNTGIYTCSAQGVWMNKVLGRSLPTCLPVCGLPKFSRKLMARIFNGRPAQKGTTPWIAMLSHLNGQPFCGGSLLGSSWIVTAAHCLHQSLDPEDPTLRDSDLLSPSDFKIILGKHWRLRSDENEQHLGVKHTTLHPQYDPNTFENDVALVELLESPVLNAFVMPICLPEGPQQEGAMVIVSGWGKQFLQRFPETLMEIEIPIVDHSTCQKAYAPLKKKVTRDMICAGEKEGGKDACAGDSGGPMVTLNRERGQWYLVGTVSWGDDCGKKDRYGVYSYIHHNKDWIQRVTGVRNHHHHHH

Assay [2] deals with recombinant human MASP2 (amino acids 297-686, C-terminal His Tag) (human, UniProt O00187 297-686).
Chain of recombinant human MASP2 (amino acids 297-686, C-terminal His Tag) (O00187 other isoform, or with tags, fused parts or gaps limits assumed): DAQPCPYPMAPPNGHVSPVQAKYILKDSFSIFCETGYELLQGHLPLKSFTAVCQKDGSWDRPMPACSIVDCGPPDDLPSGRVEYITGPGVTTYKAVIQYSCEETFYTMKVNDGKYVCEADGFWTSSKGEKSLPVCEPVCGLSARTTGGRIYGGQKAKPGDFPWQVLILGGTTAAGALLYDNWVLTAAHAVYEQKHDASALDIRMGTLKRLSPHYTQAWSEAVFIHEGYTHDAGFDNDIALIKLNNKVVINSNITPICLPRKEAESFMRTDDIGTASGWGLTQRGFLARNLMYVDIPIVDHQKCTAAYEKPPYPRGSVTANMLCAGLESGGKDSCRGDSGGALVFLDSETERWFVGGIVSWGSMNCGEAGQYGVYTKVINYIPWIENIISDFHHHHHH
Assay [3] has as its target recombinant rat MASP2 (amino acids 296-685, C-terminal His Tag) (rat, UniProt Q9JJS8 296-685).
For assay [4], the target named is T2, recombinant rat MASP1 (amino acids 302-704, C-terminal His Tag) (rat, UniProt Q8CHN8 302-704).
T2 sequence: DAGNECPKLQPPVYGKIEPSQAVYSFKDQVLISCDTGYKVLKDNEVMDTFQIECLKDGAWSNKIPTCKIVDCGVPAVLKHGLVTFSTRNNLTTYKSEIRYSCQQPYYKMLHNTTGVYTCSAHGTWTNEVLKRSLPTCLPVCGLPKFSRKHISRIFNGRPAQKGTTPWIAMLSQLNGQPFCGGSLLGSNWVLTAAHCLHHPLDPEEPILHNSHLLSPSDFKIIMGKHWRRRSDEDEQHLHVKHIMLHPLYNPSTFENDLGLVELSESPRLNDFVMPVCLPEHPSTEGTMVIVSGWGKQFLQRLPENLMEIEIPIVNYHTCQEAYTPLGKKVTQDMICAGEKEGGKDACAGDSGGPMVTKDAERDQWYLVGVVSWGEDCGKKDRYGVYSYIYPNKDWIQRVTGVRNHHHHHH

Chain of recombinant rat MASP2 (amino acids 296-685, C-terminal His Tag) (Q9JJS8 other isoform, or with tags, fused parts or gaps limits assumed): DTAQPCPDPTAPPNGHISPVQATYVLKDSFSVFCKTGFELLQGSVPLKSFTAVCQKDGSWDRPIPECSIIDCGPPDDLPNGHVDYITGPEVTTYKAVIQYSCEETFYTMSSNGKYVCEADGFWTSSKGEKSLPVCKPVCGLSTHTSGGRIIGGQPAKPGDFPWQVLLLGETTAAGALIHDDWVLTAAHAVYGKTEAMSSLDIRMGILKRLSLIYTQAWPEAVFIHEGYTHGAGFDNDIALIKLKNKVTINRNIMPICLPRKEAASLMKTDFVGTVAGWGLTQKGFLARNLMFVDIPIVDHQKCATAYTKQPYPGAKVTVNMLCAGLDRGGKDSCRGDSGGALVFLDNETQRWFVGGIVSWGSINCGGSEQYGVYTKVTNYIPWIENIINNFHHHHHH

B1: Reference peptide 12: P**FC+IPPISKTC+RGD** (peptide)
peptide: cyclo(PFCIPPISKTCRGD)
modifications: disulfide 3-11
SMILES: CC[C@H](C)[C@@H]1NC(=O)[C@@H]2CCCN2C(=O)[C@@H]2CCCN2C(=O)[C@H]([C@@H](C)CC)NC(=O)[C@@H]2CSSC[C@H](NC(=O)[C@H]([C@@H](C)O)NC(=O)[C@H](CCCCN)NC(=O)[C@H](CO)NC1=O)C(=O)N[C@@H](CCCNC(=N)N)C(=O)NCC(=O)N[C@@H](CC(=O)O)C(=O)N1CCC[C@H]1C(=O)N[C@@H](Cc1ccccc1)C(=O)N2
Consider B1, for which the “human MASP1 IC50” value in assay [1] stood at 4800 nM. In assay [2], the “human MASP2 IC50” value worked out at 5000 nM. Moreover, in assay [3], the “rat MASP2 IC50” value was found to be 1000 nM. Moreover, in assay [4], the “rat MASP1 IC50” value turned out to be 1000 nM.

B2: Bicyclic SFMI-1: G**IC+SRSLPPIC+IPD** (peptide)
peptide: cyclo(GICSRSLPPICIPD)
modifications: disulfide 3-11
SMILES: CC[C@H](C)[C@@H]1NC(=O)CNC(=O)[C@H](CC(=O)O)NC(=O)[C@@H]2CCCN2C(=O)[C@H]([C@@H](C)CC)NC(=O)[C@@H]2CSSC[C@H](NC1=O)C(=O)N[C@@H](CO)C(=O)N[C@@H](CCCNC(=N)N)C(=O)N[C@@H](CO)C(=O)N[C@@H](CC(C)C)C(=O)N1CCC[C@H]1C(=O)N1CCC[C@H]1C(=O)N[C@@H]([C@@H](C)CC)C(=O)N2
As to B2, in assay [1], the “human MASP1 IC50” value was 145 nM. For the same molecule, the “human MASP2 IC50” value in assay [2] stood at 895 nM. The “rat MASP2 IC50” value in assay [3] is 232 nM. Moreover, the “rat MASP1 IC50” value in assay [4] was found to be 1000 nM.
